Test results published in paper PMC9067669, “Allostery in the dynamic coactivator domain KIX occurs through minor conformational micro-states” (PLoS Computational Biology, 2022).
Non-standard residues stand in square brackets, D forms with d. pS = N[C@@H](COP(=O)(O)O)C(=O)O

Experiments:
[1] = biological target: T1, KIX domain from mouse CBP, residues 586-672 (mouse, UniProt P45481 586-672); test: differential scanning fluorimetry (DSF); 20 uM protein with 5X SYPRO orange, incubated with 1X TAD peptide at RT for 30 minutes; 25-95°C at 1°C/min; Tm is the maximum of the first derivative, dTm the difference between protein and protein + ligand; conditions: both partners purified
T1 construct: the pRSETB vector may add further residues beside the His tag (surmise); also called apo KIX; Apo KIX(586-672); source: E. coli BL21 DE3, purified (HisTrap Ni IMAC, Source S ion exchange)

[2] = biological target: T2, KIX_(I660V) (KIX domain from mouse CBP, residues 586-672, I660V) (mouse, UniProt P45481 586-672, I660V); test: as above; conditions: both partners purified
T2 construct: also called mutant KIX_(I660V); K_(I660V); source: E. coli BL21 DE3, purified (HisTrap Ni IMAC, Source S ion exchange)
T2 sequence (P45481 586-672 I660V): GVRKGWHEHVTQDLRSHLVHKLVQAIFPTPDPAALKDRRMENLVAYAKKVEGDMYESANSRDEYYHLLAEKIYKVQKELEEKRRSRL

T1 sequence (P45481 586-672): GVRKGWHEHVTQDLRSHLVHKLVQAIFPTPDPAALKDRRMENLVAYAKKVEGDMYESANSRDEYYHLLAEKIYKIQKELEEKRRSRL

Row | Binder | increase in TM [1] | binding result [1] | binding result [2]
1 | Ac-DCGNILPSDIMDFVLKNTPY-NH2 (mixed lineage leukemia (MLL) transcription factor peptide, printed residues 840-858; last printed letter of the peptide, beyond the 19 residues of the stated range; source: synthetic peptide (HPLC purified, reduced with DTT, 98% purity)) [MLL(840-858) peptide] | 0.8 °C |  | 
2 | Ac-TDSQKRREILSRRP[pS]YRKILNDLSSDAPG-NH2 (SMILES CC[C@H](C)[C@H](NC(=O)[C@H](CCCCN)NC(=O)[C@H](CCCNC(=N)N)NC(=O)[C@H](Cc1ccc(O)cc1)NC(=O)[C@H](COP(=O)(O)O)NC(=O)[C@@H]1CCCN1C(=O)[C@H](CCCNC(=N)N)NC(=O)[C@H](CCCNC(=N)N)NC(=O)[C@H](CO)NC(=O)[C@H](CC(C)C)NC(=O)[C@@H](NC(=O)[C@H](CCC(=O)O)NC(=O)[C@H](CCCNC(=N)N)NC(=O)[C@H](CCCNC(=N)N)NC(=O)[C@H](CCCCN)NC(=O)[C@H](CCC(N)=O)NC(=O)[C@H](CO)NC(=O)[C@H](CC(=O)O)NC(=O)[C@@H](NC(C)=O)[C@@H](C)O)[C@@H](C)CC)C(=O)N[C@@H](CC(C)C)C(=O)N[C@@H](CC(N)=O)C(=O)N[C@@H](CC(=O)O)C(=O)N[C@@H](CC(C)C)C(=O)N[C@@H](CO)C(=O)N[C@@H](CO)C(=O)N[C@@H](CC(=O)O)C(=O)N[C@@H](C)C(=O)N1CCC[C@H]1C(=O)NCC(N)=O, kinase-inducible domain of CREB, residues 119-147, phosphorylated; source: synthetic peptide (HPLC purified, >90% purity)) [pKID(119-147) peptide, phosphorylated kinase-inducible domain of CREB] |  | binds | binds
